The test system of the data set is Escherichia coli TOP10. Nature of the data set: shrunken log2 fold change of peptide-encoding DNA abundance (4.5 h post-induction vs induction); higher = less antimicrobial activity (less host growth inhibition). The settings on record: time post-induction: 4.5 h; library: site-saturation at positions 5, 18, 19, 20.
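Further: peptides expressed intracellularly from a pBAD plasmid library in pooled LB shake-flask culture, induced with 0.3% L-arabinose, DNA abundance read by NGS, three biological replicates, DESeq2 with apeglm shrinkage.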

Take RRIRERPPRLPRPRPRPVSVPRP: the “shrunken log2 fold change” value was -0.022.

Take RRIRQRPPRLPRPRPRPEQRPRP: the “shrunken log2 fold change” value turned out to be 0.0426.

Consider RRIRGRPPRLPRPRPRPSTAPRP, for which the “shrunken log2 fold change” value was found to be 0.926.

Regarding RRIRWRPPRLPRPRPRPQYIPRP, the “shrunken log2 fold change” value is -0.944.

RRIRQRPPRLPRPRPRPFVRPRP: the “shrunken log2 fold change” value is -0.0842.

As to RRIRRRPPRLPRPRPRPAEMPRP, the “shrunken log2 fold change” value was 0.219.

Consider RRIRVRPPRLPRPRPRPDVGPRP, for which the “shrunken log2 fold change” value was -0.13.

In the case of RRIRARPPRLPRPRPRPRGIPRP, the “shrunken log2 fold change” value turned out to be 0.488.

As for RRIRHRPPRLPRPRPRPEHFPRP, the “shrunken log2 fold change” value was -0.00153.

Regarding RRIRGRPPRLPRPRPRPAYWPRP, the “shrunken log2 fold change” value was -0.0674.

Regarding RRIRNRPPRLPRPRPRPAGNPRP, the “shrunken log2 fold change” value came to 0.0404.

RRIRERPPRLPRPRPRPMIFPRP: the “shrunken log2 fold change” value is -0.223.

With RRIRTRPPRLPRPRPRPRVSPRP, the “shrunken log2 fold change” value is 0.0622.

In the case of RRIRRRPPRLPRPRPRPNLRPRP, the “shrunken log2 fold change” value came out at 0.00766.

Turning to RRIRTRPPRLPRPRPRPMVMPRP, the “shrunken log2 fold change” value was -0.0384.

RRIRSRPPRLPRPRPRPMPQPRP: the “shrunken log2 fold change” value was determined as 0.126.

Turning to RRIRARPPRLPRPRPRPYSEPRP, the “shrunken log2 fold change” value is -0.339.

RRIRCRPPRLPRPRPRPQQEPRP: the “shrunken log2 fold change” value is -0.051.

On to RRIRSRPPRLPRPRPRPYWGPRP, for which the “shrunken log2 fold change” value is -0.0576.

For RRIRARPPRLPRPRPRPPWQPRP, the “shrunken log2 fold change” value stood at 0.675.

In the case of RRIRMRPPRLPRPRPRPINHPRP, the “shrunken log2 fold change” value was -0.173.

Turning to RRIRPRPPRLPRPRPRPKVEPRP, the “shrunken log2 fold change” value turned out to be 0.00158.

As for RRIRIRPPRLPRPRPRPMQNPRP, the “shrunken log2 fold change” value came out at 0.112.

In the case of RRIRIRPPRLPRPRPRPAHCPRP, the “shrunken log2 fold change” value is 0.0837.

As for RRIRTRPPRLPRPRPRPEICPRP, the “shrunken log2 fold change” value was -0.0438.

For the sequence RRIRSRPPRLPRPRPRPKPCPRP, the “shrunken log2 fold change” value is 0.122.

For the sequence RRIRCRPPRLPRPRPRPFKFPRP, the “shrunken log2 fold change” value is -0.788.

Regarding RRIRTRPPRLPRPRPRPKFLPRP, the “shrunken log2 fold change” value stood at 0.0687.

For RRIRTRPPRLPRPRPRPYVHPRP, the “shrunken log2 fold change” value is -0.75.

On to RRIRPRPPRLPRPRPRPTEEPRP, for which the “shrunken log2 fold change” value worked out at 0.551.

For RRIRMRPPRLPRPRPRPDFEPRP, the “shrunken log2 fold change” value worked out at 0.589.

As to RRIRNRPPRLPRPRPRPIFNPRP, the “shrunken log2 fold change” value is -0.302.

Turning to RRIRKRPPRLPRPRPRPGMAPRP, the “shrunken log2 fold change” value turned out to be 0.315.

For RRIRHRPPRLPRPRPRPSRHPRP, the “shrunken log2 fold change” value came out at 1.6.

Consider RRIRARPPRLPRPRPRPPYWPRP, for which the “shrunken log2 fold change” value was determined as 0.376.

In the case of RRIRWRPPRLPRPRPRPKSYPRP, the “shrunken log2 fold change” value worked out at 0.0188.

Regarding RRIRERPPRLPRPRPRPYLQPRP, the “shrunken log2 fold change” value was -0.138.

For the sequence RRIRVRPPRLPRPRPRPTIAPRP, the “shrunken log2 fold change” value came to 0.335.

Take RRIRLRPPRLPRPRPRPLTLPRP: the “shrunken log2 fold change” value stood at 0.134.

For the sequence RRIRTRPPRLPRPRPRPQYEPRP, the “shrunken log2 fold change” value turned out to be 0.00772.

On to RRIRGRPPRLPRPRPRPNYEPRP, for which the “shrunken log2 fold change” value was 0.161.

Consider RRIRRRPPRLPRPRPRPCMCPRP, for which the “shrunken log2 fold change” value was -0.382.

For RRIRPRPPRLPRPRPRPVCKPRP, the “shrunken log2 fold change” value was 0.0717.

In the case of RRIRTRPPRLPRPRPRPHERPRP, the “shrunken log2 fold change” value is 0.594.

RRIRERPPRLPRPRPRPDVYPRP: the “shrunken log2 fold change” value was -0.301.

As for RRIRVRPPRLPRPRPRPTKDPRP, the “shrunken log2 fold change” value is -0.303.

Turning to RRIRCRPPRLPRPRPRPHPRPRP, the “shrunken log2 fold change” value turned out to be 0.444.

RRIRNRPPRLPRPRPRPNDGPRP: the “shrunken log2 fold change” value was -0.00674.

For the sequence RRIRQRPPRLPRPRPRPGAVPRP, the “shrunken log2 fold change” value turned out to be 0.274.

RRIRKRPPRLPRPRPRPLCIPRP: the “shrunken log2 fold change” value was -0.0466.

On to RRIRIRPPRLPRPRPRPLICPRP, for which the “shrunken log2 fold change” value was -0.738.

For the sequence RRIRRRPPRLPRPRPRPDVHPRP, the “shrunken log2 fold change” value is -0.101.

Consider RRIRNRPPRLPRPRPRPITDPRP, for which the “shrunken log2 fold change” value is -1.28.

As for RRIRMRPPRLPRPRPRPSGGPRP, the “shrunken log2 fold change” value turned out to be 0.738.

With RRIRVRPPRLPRPRPRPVKWPRP, the “shrunken log2 fold change” value was -0.0595.

For RRIRMRPPRLPRPRPRPFTGPRP, the “shrunken log2 fold change” value came to 0.0078.

Regarding RRIRFRPPRLPRPRPRPMHTPRP, the “shrunken log2 fold change” value amounted to 0.5.

For the sequence RRIRDRPPRLPRPRPRPNRAPRP, the “shrunken log2 fold change” value turned out to be 0.563.

RRIRKRPPRLPRPRPRPVFMPRP: the “shrunken log2 fold change” value came to 0.138.

Take RRIRPRPPRLPRPRPRPCQKPRP: the “shrunken log2 fold change” value was -0.00783.

Regarding RRIRVRPPRLPRPRPRPSPAPRP, the “shrunken log2 fold change” value worked out at 0.34.

Take RRIRHRPPRLPRPRPRPFMNPRP: the “shrunken log2 fold change” value was -0.0862.

On to RRIRPRPPRLPRPRPRPYTNPRP, for which the “shrunken log2 fold change” value is -0.709.

Regarding RRIRGRPPRLPRPRPRPETNPRP, the “shrunken log2 fold change” value was determined as 1.95.

For the sequence RRIRCRPPRLPRPRPRPNWMPRP, the “shrunken log2 fold change” value is -0.805.

In the case of RRIRCRPPRLPRPRPRPNWRPRP, the “shrunken log2 fold change” value was 0.437.

As to RRIRSRPPRLPRPRPRPKQRPRP, the “shrunken log2 fold change” value stood at 0.161.

With RRIRWRPPRLPRPRPRPWTHPRP, the “shrunken log2 fold change” value was -0.11.

With RRIRMRPPRLPRPRPRPRFSPRP, the “shrunken log2 fold change” value is 0.206.

As to RRIRARPPRLPRPRPRPCHLPRP, the “shrunken log2 fold change” value was -0.171.

For RRIRNRPPRLPRPRPRPENEPRP, the “shrunken log2 fold change” value is -0.00386.

RRIRYRPPRLPRPRPRPIQWPRP: the “shrunken log2 fold change” value is -0.00101.

RRIRSRPPRLPRPRPRPPDAPRP: the “shrunken log2 fold change” value is 0.415.

In the case of RRIRRRPPRLPRPRPRPRAKPRP, the “shrunken log2 fold change” value was found to be 0.203.

For RRIRERPPRLPRPRPRPPQIPRP, the “shrunken log2 fold change” value amounted to 0.15.

With RRIRMRPPRLPRPRPRPVKIPRP, the “shrunken log2 fold change” value came to 0.514.

On to RRIRSRPPRLPRPRPRPMHCPRP, for which the “shrunken log2 fold change” value came to 0.377.

Turning to RRIRIRPPRLPRPRPRPNQMPRP, the “shrunken log2 fold change” value is -0.173.

As for RRIRNRPPRLPRPRPRPNWVPRP, the “shrunken log2 fold change” value is 0.0876.

As for RRIRQRPPRLPRPRPRPCYMPRP, the “shrunken log2 fold change” value is -0.832.

Turning to RRIRNRPPRLPRPRPRPMQCPRP, the “shrunken log2 fold change” value stood at 0.0637.

With RRIRDRPPRLPRPRPRPKTDPRP, the “shrunken log2 fold change” value is -0.314.

Turning to RRIRARPPRLPRPRPRPVDHPRP, the “shrunken log2 fold change” value was -0.0253.

As for RRIRRRPPRLPRPRPRPFDDPRP, the “shrunken log2 fold change” value was -0.236.

On to RRIRKRPPRLPRPRPRPIWPPRP, for which the “shrunken log2 fold change” value amounted to 0.345.

Consider RRIRIRPPRLPRPRPRPDDIPRP, for which the “shrunken log2 fold change” value is -0.151.

With RRIRYRPPRLPRPRPRPARRPRP, the “shrunken log2 fold change” value was determined as 0.234.

Take RRIRERPPRLPRPRPRPMILPRP: the “shrunken log2 fold change” value is -0.388.

As to RRIRSRPPRLPRPRPRPTIIPRP, the “shrunken log2 fold change” value was -0.35.

On to RRIRLRPPRLPRPRPRPTERPRP, for which the “shrunken log2 fold change” value is -0.189.

As for RRIRIRPPRLPRPRPRPDYCPRP, the “shrunken log2 fold change” value is -0.163.

These data come from the supplement of paper PMC9112550, “Optimization of the antimicrobial peptide Bac7 by deep mutational scanning” (BMC Biology, 2022).
